From patent US20250257332A1, “TRUNCATED AND FUSION PROTEINS” (Monash University, priority 2021, published 2025)
“Also recorded” adds a separate entry of the source.

B1: hrNAMPT(2): Second commercially available human recombinant NAMPT protein source (protein)
chain: MNPAAEAEFNILLATDSYKVTHYKQYPPNTSKVYSYFECREKKTENSKLRKVKYEETVFYGLQYILNKYLKGKVVTKEKIQEAKDVYKEHFQDDVFNEKGWNYILEKYDGHLPIEIKAVPEGFVIPRGNVLFTVENTDPECYWLTNWIETILVQSWYPITVATNSREQKKILAKYLLETSGNLDGLEYKLHDFGYRGVSSQETAGIGASAHLVNFKGTDTVAGLALIKKYYGTKDPVPGYSVPAAEHSTITAWGKDHEKDAFEHIVTQFSSVPVSVVSDSYDIYNACEKIWGEDLRHLIVSRSTQAPLIIRPDSGNPLDTVLKVLEILGKKFPVTENSKGYKLLPPYLRVIQGDGVDINTLQEIVEGMKQKMWSIENIAFGSGGGLLQKLTRDLLNCSFKCSYVVTNGLGINVFKDPVADPNKRSKKGRLSLHRTPAGNFVTLEEGKGDLEEYGQDLLHTVFKNGKVTKSYSFDEIRKNAQLNIELEAAHH
B2: CCL8/MCP-2: canonical CCR5 ligand (protein, UniProt Q9Z121 24-97, looked up)
C-C motif chemokine 8: GPDKAPVTCCFHVLKLKIPLRVLKSYERINNIQCPMEAVVFQTKQGMSLCVDPTQKWVSEYMEILDQKSQILQP
B3: NAMPT422-491: Truncated hNAMPTcif, residues 422-491 of full length NAMPT, SEQ ID NO: 6 (His-tagged: SEQ ID NO: 7) (protein)
chain: NKRSKKGRLSLHRTPAGNFVTLEEGKGDLEEYGQDLLHTVFKNGKVTKSYSFDEIRKNAQLNIELEAAHH
B4: CCL4/MIP-1β: canonical CCR5 ligand (protein, UniProt P14097 24-92, looked up)
C-C motif chemokine 4: APMGSDPPTSCCFSYTSRQLHRSFVMDYYETSSLCSKPAVVFLTKRGRQICANPSEPWVTEYMSDLELN
B5: NAMPT414-491: Truncated hNAMPTcif, residues 414-491 of full length NAMPT, SEQ ID NO: 4 (His-tagged: SEQ ID NO: 5) (protein)
chain: FKDPVADPNKRSKKGRLSLHRTPAGNFVTLEEGKGDLEEYGQDLLHTVFKNGKVTKSYSFDEIRKNAQLNIELEAAHH
B6: NAMPT430-491: Truncated hNAMPTcif, residues 430-491 of full length NAMPT, SEQ ID NO: 8 (His-tagged: SEQ ID NO: 9) (protein)
chain: LSLHRTPAGNFVTLEEGKGDLEEYGQDLLHTVFKNGKVTKSYSFDEIRKNAQLNIELEAAHH
B7: hrNAMPT(1): Commercially available human recombinant NAMPT source 1 (Peprotech); used in the mouse injury model (protein)
chain: PPNTSKVYSYFECREKKTENSKLRKVKYEETVFYGLQYILNKYLKGKVVTKEKIQEAKDVYKEHFQDDVFNEKGWNYILEKYDGHLPIEIKAVPEGFVIPRGNVLFTVENTDPECYWLTNWIETILVQSWYPITVATNSREQKKILAKYLLETSGNLDGLEYKLHDFGYRGVSSQETAGIGASAHLVNFKGTDTVAGLALIKKYYGTKDPVPGYSVPAAEHSTITAWGKDHEKDAFEHIVTQFSSVPVSVVSDSYDIYNACEKIWGEDLRHLIVSRSTQAPLIIRPDSGNPLDTVLKVLEILGKKFPVTENSKGYKLLPPYLRVIQGDGVDINTLQEIVEGMKQKMWSIENIAFGSGGGLLQKLTRDLLNCSFKCSYVVTNGLGINVFKDPVADPNKRSKKGRLSLHRTPAGNFVTLEEGKGDLEEYGQDLLHTVFKNGKVTKSYSFDEIRKNAQLNIELEAAHH

How the values were obtained:
C2C12 myoblasts = assay: C2C12 myoblast proliferation by EdU incorporation; assay type: cell-based, mouse; conditions: exogenously added factor vs control
Description: FIG. 2. […] In vitro assay assessing the effects of exogenously introduced factors on C2C12 myoblast proliferation. Proliferation is identified by EdU incorporation. […] Mean+S.D. Two-way ANOVA with Tukey's multiple comparison test. […] Mean±SEM
The mouse muscle cell line C2C12 (Yaffe, D. & Saxel, O. Serial passaging and differentiation of myogenic cells isolated from dystrophic mouse muscle. Nature 270, 725 (1977) were cultured in growth media (Dulbecco's Modified Eagle Medium (4.5 g/l D-Glucose, No L Glutamine, No Sodium Pyruvate (Gibco))+20% Fetal Bovine Solution-One Shot (Gibco)+1% Glut Max 100×(Gibco)). Cells were maintained at 37° C., 5% CO2. Cells at 70% confluence, passage 8 were extracted from T75 flasks with 0.025% Tryspin EDTA (Gibco), neutralised in growth media, spun at 180×g for 5 min to pellet cells. The cells were then resuspended in 10 ml of fresh growth media. 500 μl of cells were plated on a 8-well on cover glass II (Sarstedt) chamber slide at a density of 1×10^3 cells/ml. Cells were left 4 h at 37° C. to re-attach. For drug treatments, the media were supplemented with appropriate doses and cultured for 6 h.

[1] = test system: C2C12 murine myoblast cells; assay: C2C12 cell proliferation, CyQuant Proliferation Assay kit; assay type: cell-based, mouse; conditions: 20 nM, 48 hours, compared with full-length NAMPT
Description: FIG. 7. Human NAMPT variants stimulate muscle progenitor proliferation. C2C12 mouse myoblasts were treated with 20 nM full length NAMPT (NAMPT) or NAMPT variants for (NAMPTxxx-xxx, where xxx are amino acid numbers) 48 hours. Quantification of cell proliferation was performed using CyQuant Proliferation Assay kit. […] Box and whiskers denote median with minimum and maximum values. n=4-5 independent experiments per protein. Statistical significance is indicated as exact p-value. […] Significance between conditions were analysed by one-way ANOVA with Tukey post-hoc test.
Human NAMPTcif (hNAMPTcif) and truncated variants of hNAMPTcif were designed by progressively removing N-terminal regions containing positively charged amino acids. Four truncations were produced and numbered T1 to T4. Recombinant protein was produced using a bacterial expression system. hNAMPTcif variants were purified by FPLC using His-tag affinity purification. Cell proliferation assays were performed using C2C12 murine myoblast cells treated with purified recombinant hNAMPTcif variants, as well as full length NAMPT. Cells were treated with 10 nM of recombinant protein for 48 hours in DMEM supplemented with 2% foetal bovine serum at 37° C., 5% CO2. PBS treatment was used as a negative control. 10% foetal bovine serum was used as positive control. Quantification of proliferation was performed using commercially-available CyQuant Proliferation Assay kit (Thermo Fisher Scientific) according to manufacturer's instructions and read using a Synergy H1 plate reader (BioTek). Data were presented as percentage increase versus.
The heparin-binding sequence of placenta growth factor 2 (PIGF2) was fused to the N-terminus of NAMPTcif and produced using a bacterial expression system. PIGF-NAMPTcif was purified by FPLC using His-tag affinity purification followed by size exclusion chromatography. Cell proliferation assays were performed using C2C12 murine myoblast cells treated with purified recombinant NAMPTcif and full length NAMPT. Cells were treated with 2 nM, 10 nM and 20 nM concentrations of recombinant protein for 48 hours in DMEM supplemented with 2% foetal bovine serum at 37° C., 5% CO2. PBS treatment was used as a negative control. 10% foetal bovine serum was used as positive control. Quantification of proliferation was performed using commercially-available CyQuant Proliferation Assay kit (Thermo Fisher Scientific) according to manufacturer's instructions and read using a Synergy H1 plate reader (BioTek). Data were presented as percentage increase versus negative control. A two-tailed unpaired t-test was used to determine statistical significance.

[2] = test system: Human primary satellite cells; assay: Human primary satellite cell proliferation, CyQuant; assay type: cell-based; conditions: 20 nM; 48 hours; media with IGF-1 and FGF-2
Description: (§1) FIG. 8. Human NAMPT variants stimulate human satellite cell proliferation. Human primary satellite cells were treated with 20 nM full length NAMPT (NAMPT) or NAMPT variants (NAMPTxxx-xxx, where xxx are amino acid numbers) for 48 hours. The media contained the growth factors IGF-1 and FGF-2 as well. Quantification of cell proliferation was performed using CyQuant Proliferation Assay kit. […] Treatment with 20% FBS was used as a positive control. Box and whiskers denote median with minimum and maximum values. n=6-10 independent experiments per protein. Statistical significance is indicated as p-value and determined by one-sample t-test.
The inventors next sought to compare the activity of full length NAMPT, NAMPT402-491 and NAMPT422-491 on human satellite cell proliferation. Human primary satellite cells were treated with 20 nM full length NAMPT (NAMPT) or NAMPT402-491 and NAMPT422-491 for 48 hours.

[3] = test system: Human primary endothelial cells derived from umbilical vein; assay: Human primary endothelial cell proliferation, CyQuant; assay type: cell-based; conditions: 20 nM; 48 hours
Description: as §1, with “9.” for “8.”, “endothelial” for “satellite”, “cells derived from umbilical vein” for “cells”, “hours.” for “hours. The media contained the growth factors IGF-1 and FGF-2 as well.”, “10%” for “20%”, “n=6” for “n=6-10”
Similarly, the inventors next investigated the activity of full length NAMPT, NAMPT402-491 and NAMPT422-491 on human endothelial cell proliferation. Human endothelial cells were derived from umbilical vein and treated with 20 nM full length NAMPT (NAMPT) or NAMPT variants for 48 hours.

[4] = test system: needle-stab muscle injury in zebrafish larvae; assay: Larval zebrafish muscle injury and EdU pulse-chase; assay type: in vivo; conditions: 57 nM in Ringer's solution immediately after injury at 4 dpf; EdU at 2 dpi
Description: Zebrafish larvae (4 dpf) were anaesthetized in 0.01% tricaine (MS-222) (Sigma-Aldrich) in Ringer's solution. Needle-stab injury was carried out in the dorsal myotome, consisting in a single 30-gauge needle puncture that generates an extensive injury with many damaged muscle fibres. Nampt fragment treatments were carried out by incubating 4 dpf needle-stab-injured larvae in 57 nM Nampt in Ringer's solution immediately after injury. Needle-stab-injured larvae at 6 dpf (2 dpi) were transferred into Ringer's solution containing 50 μg ml-1 EdU (Thermo Fisher Scientific) for 1 h and chased for a further 1.5 h before fixation. Samples were developed using the Click-iT EdU Alexa Fluor 647 imaging Kit (Thermo Fisher Scientific) following the manufacturer's protocol, followed by a phalloidin immunostaining (Thermo Fisher Scientific). EdU+ cells in a region encompassing two myotomes on either side of the injury were quantified as the number of EdU+ cells outside the injury region. EdU+ cells in the caudal haematopoietic tissue were excluded from this analysis. Statistical analysis has been conducted using Two-way ANOVA with Tuckey's multiple comparison test.

Molecule | myoblast proliferation (EdU incorporation), factor alone (C2C12 myoblasts) | cell proliferation, percentage increase vs PBS-treated control [1] | further results
B1 | dose dependent increase in myoblast proliferation; also recorded: comparable and significant dose dependent increases in myoblast proliferation |  | 
B2 | could be recapitulated |  | myoblast proliferation (EdU incorporation), factor alone (C2C12 myoblasts; listed as mrCCL8): functioned to enhance C2C12 proliferation
B3 |  | highest cellular proliferation compared to all NAMPT variants tested; also recorded: statistically significant increase in proliferation | satellite cell proliferation, percentage increase vs PBS-treated control [2]: even greater satellite cell proliferation compared to both full length NAMPT and NAMPT402-491; endothelial cell proliferation, percentage increase vs PBS-treated control [3]: still stimulated endothelial cell proliferation above negative control; cell proliferation (EdU-positive cells) within the injury zone [4]: significant increase in cell proliferation within the injury zone; also recorded: significantly higher levels as compared to human recombinant-NAMPT (hrNAMPT)
B4 | could be recapitulated |  | myoblast proliferation (EdU incorporation), factor alone (C2C12 myoblasts; listed as mrCCL4): functioned to enhance C2C12 proliferation
B5 |  | enhanced cellular proliferation compared to full-length NAMPT | 
B6 |  | enhanced cellular proliferation compared to full-length NAMPT | 
B7 | dose dependent increase in myoblast proliferation; also recorded: comparable and significant dose dependent increases in myoblast proliferation |  | 
